Abundance fitness data for 34 variants are collected here from the Human Domainome abundance scans (Beltran et al. 2025).

± gives the uncertainty stated by the source.

B1: Apoptosis-associated speck-like protein containing a CARD, residues 114 to 194; numbered along this chain, Q9ULZ3 (parent)
chain: FIDQHRAALIARVTNVEWLLDALYGKVLTDEQYQAVRAEPTNPSKMRKLFSFTPAWNWTCKDLLLQALRESQSYLVEDLER

The data set covers variants of B1. Nature of the data set: abundance fitness (aPCA) (normalised: wild type 0, dead -1); higher = more abundant; growth selection in yeast, the domain comes from the species named. Conditions: Homo sapiens.
For FIDQHRAALIARVTNVEWLLDALYGDVLTDEQYQAVRAEPTNPSKMRKLFSFTPAWNWTCKDLLLQALRESQSYLVEDLER [K26D], the abundance fitness was -0.483 ± 0.11.

In the case of FIDQHRAALIARVTNVEWLLDALYGKVLTDECYQAVRAEPTNPSKMRKLFSFTPAWNWTCKDLLLQALRESQSYLVEDLER [Q32C], the abundance fitness was -0.68 ± 0.22.

In the case of FIDQHRAALIARVTNVEWLLDALYGKVLTDEIYQAVRAEPTNPSKMRKLFSFTPAWNWTCKDLLLQALRESQSYLVEDLER [Q32I], the abundance fitness was -0.772 ± 0.26.

As for FIDQHRAALIARVTNVEWLLDALYGKVLTDENYQAVRAEPTNPSKMRKLFSFTPAWNWTCKDLLLQALRESQSYLVEDLER [Q32N], the abundance fitness is -0.873 ± 0.22.

For FIDQHRAALIARVTNVEWLLDALYGKVLTDEQYQAWRAEPTNPSKMRKLFSFTPAWNWTCKDLLLQALRESQSYLVEDLER [V36W], the abundance fitness is -0.74 ± 0.095.

FIDQHRAALIARVTNVEWLLDALYGKVLTDEQYQARRAEPTNPSKMRKLFSFTPAWNWTCKDLLLQALRESQSYLVEDLER [V36R]: the abundance fitness was -0.833 ± 0.1.

Take FIDQHRAALIARVTNVEWLLDALYGKVLTDEQYQATRAEPTNPSKMRKLFSFTPAWNWTCKDLLLQALRESQSYLVEDLER [V36T]: the abundance fitness was -1.01 ± 0.24.

As to FIDQHRAAKIARVTNVEWLLDALYGKVLTDEQYQAVRAEPTNPSKMRKLFSFTPAWNWTCKDLLLQALRESQSYLVEDLER [L9K], the abundance fitness is -0.948 ± 0.25.

FIDQHRAALIARVTNVEWALDALYGKVLTDEQYQAVRAEPTNPSKMRKLFSFTPAWNWTCKDLLLQALRESQSYLVEDLER [L19A]: the abundance fitness is -0.319 ± 0.062.

Take FIDQHRAALIARVTNVEWLLDALYGKVLTDEQYQAVQAEPTNPSKMRKLFSFTPAWNWTCKDLLLQALRESQSYLVEDLER [R37Q]: the abundance fitness is -0.008 ± 0.083.

FIDQHRAALIARVTNVEWLLDALYGKVLTDEQYQAVFAEPTNPSKMRKLFSFTPAWNWTCKDLLLQALRESQSYLVEDLER [R37F]: the abundance fitness was -0.509 ± 0.15.

As for FIDQHRAALIARVTNVEWLLDALYGKVLTDEQYQAVRAEPTMPSKMRKLFSFTPAWNWTCKDLLLQALRESQSYLVEDLER [N42M], the abundance fitness is -0.48 ± 0.096.

For FIDQHRAALIARVTNVEWLLDALYGKVLTDEQYQAVRAEPTNPSKMRKLFSFTRAWNWTCKDLLLQALRESQSYLVEDLER [P54R], the abundance fitness is -0.026 ± 0.044.

For FIDQHRAALIARVTNVEWLLDALYGKVLTDEQYQAVRAEPTNPSKMRKLFSFTEAWNWTCKDLLLQALRESQSYLVEDLER [P54E], the abundance fitness worked out at 0.078 ± 0.073.

As for FIDQHRAALIARVTNVEWLLDALYGKVLTDEQYQAVRAEPTNPSKMRKLFSFTPAWNNTCKDLLLQALRESQSYLVEDLER [W58N], the abundance fitness came to 0.105 ± 0.26.

In the case of FIDQHRAALIARVTNVEWLLDALYGKVLTDEQYQAVRAEPTNPSKMRKLFSFTPAWNSTCKDLLLQALRESQSYLVEDLER [W58S], the abundance fitness is 0.306 ± 0.046.

For the variant FIDQHRAALIARVTNVEWLLDALYGKVLTDEQYQAVRAEPTNPSKMRKLFSFTPAWNPTCKDLLLQALRESQSYLVEDLER [W58P], the abundance fitness amounted to 0.145 ± 0.06.

On to FIDQHRAALIARVTNVEWLLDALYGKVLTDEQYQAVRAEPTNPSDMRKLFSFTPAWNWTCKDLLLQALRESQSYLVEDLER [K45D], for which the abundance fitness was -1 ± 0.27.

Regarding FIDQHRAALIAHVTNVEWLLDALYGKVLTDEQYQAVRAEPTNPSKMRKLFSFTPAWNWTCKDLLLQALRESQSYLVEDLER [R12H], the abundance fitness is -0.219 ± 0.12.

With FIDQHRAALIAEVTNVEWLLDALYGKVLTDEQYQAVRAEPTNPSKMRKLFSFTPAWNWTCKDLLLQALRESQSYLVEDLER [R12E], the abundance fitness was -0.316 ± 0.07.

As to FIDQHRAALIARVTNVEWLLDALYGKVLTDEQYQAVRAEPTNPSKMRKLFSFVPAWNWTCKDLLLQALRESQSYLVEDLER [T53V], the abundance fitness came to 0.072 ± 0.04.

Consider FIDQHRAALIARVTNVEWLLDALYGKVLTDEQYQAVRAEPTNPSKMRKLFSFGPAWNWTCKDLLLQALRESQSYLVEDLER [T53G], for which the abundance fitness was -0.663 ± 0.058.

As for FIDQHRAALIARVTNVEWLLDALYGKVLTDEQYQAVRAEPTNPSKMRKLFSFTPAWNWTCKDLLLQALREHQSYLVEDLER [S71H], the abundance fitness was -0.109 ± 0.12.

Turning to FIDQHRAALIARVTNVEWLLDALYGKVLTDEQYQAVRAEPTNPSKMRKLFSFTPAWNWTCKDLLLQALRECQSYLVEDLER [S71C], the abundance fitness was -0.453 ± 0.12.

With FIDQHRAALIARVTNVEWLPDALYGKVLTDEQYQAVRAEPTNPSKMRKLFSFTPAWNWTCKDLLLQALRESQSYLVEDLER [L20P], the abundance fitness is -0.543 ± 0.11.

FIDQHRAALIARVTNVEWLLDALYGKVLTDEQYQAVRAEPTNPSKMRKLFSFTPAWNWTCLDLLLQALRESQSYLVEDLER [K61L]: the abundance fitness was -0.901 ± 0.13.

FIDQHRAALIARVTNVEWLLDALYGKVLTDEQYQAVRAEPTNPSKMRKLFSFTPAWNWTCYDLLLQALRESQSYLVEDLER [K61Y]: the abundance fitness is 0.119 ± 0.13.

In the case of FIDQHRAALIARVTNVEWLLDALYGKVLTDEQYQAVRAEPTNPSKMRKLFSFTPAWYWTCKDLLLQALRESQSYLVEDLER [N57Y], the abundance fitness was -0.852 ± 0.25.

Turning to FIDQHRAALIARVTNVEWLLDALYGKVLTDEQYQAVRAEPTNPSKMRKLFSFTPDWNWTCKDLLLQALRESQSYLVEDLER [A55D], the abundance fitness is -0.061 ± 0.16.

Consider FIDQHRAALIARVTNVEWLLDALYGKVLTDEQYQAVRAEPTNPSKMRKLFSFTPAWNWTCKDLVLQALRESQSYLVEDLER [L64V], for which the abundance fitness is -0.123 ± 0.05.

Turning to FIDQHCAALIARVTNVEWLLDALYGKVLTDEQYQAVRAEPTNPSKMRKLFSFTPAWNWTCKDLLLQALRESQSYLVEDLER [R6C], the abundance fitness was -0.752 ± 0.17.

For the variant FIDQHQAALIARVTNVEWLLDALYGKVLTDEQYQAVRAEPTNPSKMRKLFSFTPAWNWTCKDLLLQALRESQSYLVEDLER [R6Q], the abundance fitness is -0.285 ± 0.13.

Regarding FIDQHRAALIARVTNVEWLLDALYGKVLTDEQYQAVRAEPTNPSKMRKLFSFTPAWNWTCKDLLLQALRESQSYLVEDRER [L79R], the abundance fitness is -0.751 ± 0.074.

Take FIDQHRAALIARVTNVEWLLDALYGKVLTDEQYQAVRAEPTNPSKMRKLFSFTPAWNWTCKDLLLQALRESQSYLVEDYER [L79Y]: the abundance fitness was -0.886 ± 0.18.
